The text below walks through data of patent US7531337.

The target in data set [1] is Acetylated acetyl-CoA synthetase (Acs^Ac), Acs of S. enterica isolated from a cobB- strain (S. enterica) (UniProt Q8ZKF6). Kind of data set: cell-based or functional assay.
In data set [2] the target is T1, Acetylated acetyl-CoA synthetase (Acs^Ac), Acs of S. enterica isolated from a cobB- strain.
T1 chain: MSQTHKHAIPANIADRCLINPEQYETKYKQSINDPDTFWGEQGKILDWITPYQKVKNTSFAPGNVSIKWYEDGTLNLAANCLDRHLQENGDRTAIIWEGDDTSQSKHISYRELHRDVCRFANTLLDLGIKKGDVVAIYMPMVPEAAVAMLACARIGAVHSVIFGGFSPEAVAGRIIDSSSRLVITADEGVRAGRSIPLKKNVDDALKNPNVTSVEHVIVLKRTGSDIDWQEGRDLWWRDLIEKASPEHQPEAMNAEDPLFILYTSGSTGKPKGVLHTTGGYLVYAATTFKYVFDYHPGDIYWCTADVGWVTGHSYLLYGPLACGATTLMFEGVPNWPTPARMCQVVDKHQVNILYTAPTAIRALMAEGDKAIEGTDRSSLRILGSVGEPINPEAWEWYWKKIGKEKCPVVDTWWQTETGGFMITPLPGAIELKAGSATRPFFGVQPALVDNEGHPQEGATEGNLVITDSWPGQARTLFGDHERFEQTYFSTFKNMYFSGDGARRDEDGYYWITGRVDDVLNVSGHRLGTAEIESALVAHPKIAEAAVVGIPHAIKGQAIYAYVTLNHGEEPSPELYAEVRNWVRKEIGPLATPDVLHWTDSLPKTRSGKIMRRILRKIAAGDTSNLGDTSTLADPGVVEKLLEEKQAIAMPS

[3] abbreviates: scale: pmoles of acetyl-CoA formed min^-1 mg of protein^-1.

In the case of “CobB sirtuin of S. enterica (purified, homogeneous) (from UniProt P0A2F2 1-273) (enzyme)”, in data set [1], the Acs Sp. Act. (purified Acs from CobB- host, plus BSA, CobB, NAD+) (nmoles of acetyl-CoA formed min^-1 mg^-1) came to 483 and the Acs Sp. Act. (purified Acs from CobB- host, plus CobB, NAD+) (nmoles of acetyl-CoA formed min^-1 mg^-1) stood at 480. In addition, in data set [1] (setting [3]), the Acs Specific Activity (crude cell-free extract of Acs+ cobB- strain, plus 10 µg CobB + NAD+) was found to be 490 and the Acs Specific Activity (crude cell-free extract of Acs+ cobB- strain, plus 10 µg CobB) came out at 42.

B1: CobB sirtuin of S. enterica (purified, homogeneous) (protein)
chain: MQSRRFHRLSRFRKNKRLLRERLRQRIFFRDRVVPEMMENPRVLVLTGAGISAESGIRTFRAADGLWEEHRVEDVATPEGFARNPGLVQTFYNARRQQLQQPEIQPNAAHLALAKLEEALGDRFLLVTQNIDNLHERAGNRNIIHMHGELLKVRCSQSGQILEWNGDVMPEDKCHCCQFPAPLRPHVVWFGEMPLGMDEIYMALSMADIFIAIGTSGHVYPAAGFVHEAKLHGAHTVELNLEPSQVGSEFEEKHYGPASQVVPEFVDKFLKGL
For B1, in data set [2], the “reactivity of Acs with anti-acetyl-lysine antibody in a time-course immunoblot” value is “The decreased reactivity of Acs with the antibody was dependent on the presence of NAD^+ and CobB in a time-course experiment”.
